This note sets out measurements from patent publication US7745575B1 (Cellpep Pharma Inc., priority 2004, dated 2010).

The target in series [1] is T1, hKv3.2 (Homo sapiens, UniProt Q96PR1).
T1 sequence (Q96PR1 1-638): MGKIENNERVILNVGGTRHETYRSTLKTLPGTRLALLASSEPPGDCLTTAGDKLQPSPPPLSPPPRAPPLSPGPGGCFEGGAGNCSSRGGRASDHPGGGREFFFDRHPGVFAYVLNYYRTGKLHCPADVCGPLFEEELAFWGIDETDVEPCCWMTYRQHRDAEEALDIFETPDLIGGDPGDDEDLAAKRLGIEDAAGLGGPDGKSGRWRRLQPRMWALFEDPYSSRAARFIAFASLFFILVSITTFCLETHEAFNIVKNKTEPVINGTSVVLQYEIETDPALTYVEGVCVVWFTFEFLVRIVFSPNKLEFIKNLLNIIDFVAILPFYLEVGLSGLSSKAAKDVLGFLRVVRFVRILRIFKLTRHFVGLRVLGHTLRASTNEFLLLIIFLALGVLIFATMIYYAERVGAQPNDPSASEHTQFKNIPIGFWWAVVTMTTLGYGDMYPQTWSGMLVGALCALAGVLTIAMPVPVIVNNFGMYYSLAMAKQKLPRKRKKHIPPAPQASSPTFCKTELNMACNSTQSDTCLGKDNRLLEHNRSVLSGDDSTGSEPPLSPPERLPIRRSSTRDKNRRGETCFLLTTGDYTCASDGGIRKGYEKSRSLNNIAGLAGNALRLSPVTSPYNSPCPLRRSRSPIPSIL
The series is described as follows: patch-clamp whole-cell recording, K+ current block. The format is cell-based. As to the method:
(§1) Electrophysiological experiments were carried out at 22-24° C. using the patch-clamp whole-cell recording mode. Cells were bathed with mammalian Ringer's solution (in mM): 160 NaCl, 4.5 KCl, 2 CaCl2, 1 MgCl2, and 10 HEPES (pH 7.4 with NaOH), with an osmolarity of 290-320 mOsm. […] A syringe-driven perfusion device was used to exchange the external recording bath solution. Two internal pipette solutions were used, one for measuring voltage-gated K^+ currents that contained (in mM): 155 KF, 2 MgCl2, 10 HEPES, and 10 EGTA (pH 7.2 with KOH), with an osmolarity of 290-320 mOsm and another for measuring Ca^2+-activated K^+ currents that contained (in mM): 135 K-aspartate, 8.7 CaCl2, 2 MgCl2, 10 EGTA, 10 HEPES (pH 7.2 with KOH), with an osmolarity of 290-320 mOsm. A free [Ca^2+]i of 1 μM was calculated. All currents through voltage-gated K^+ channels were elicited by 200 ms depolarising voltage steps from −80 to +40 mV. Potassium currents through KCa1.1, KCa2.1 and KCa3.1 were elicited by 1 μM internal [Ca^2+]i and 400 ms voltage ramps from −120 to 0 mV (for KCa3.1 channel and KCa1.1 channel) and from −120 to +40 mV (for KCa2.1 channel). Electrodes were pulled from glass capillaries (Science Products, Germany), and fire-polished to resistances of 2.5-5 MΩ. Membrane currents were measured with an EPC-9 or EPC-10 patch-clamp amplifier (HEKA Elektronik, Lambrecht, Germany) interfaced to a Macintosh computer running acquisition and analysis software (Pulse and PulseFit). When voltage-gated K^+ currents were measured, the capacitive and leak currents were subtracted using a P/10 procedure. Series resistance compensation (>80%) was used for currents above 2 nA. The holding potential was −80 mV in all experiments.
(In patch-clamp work, channel activity is measured electrically.)

Series [2] deals with hIK1 (KCa3.1) (Homo sapiens, UniProt O15554). Nature of the series: patch-clamp whole-cell recording, Ca2+-activated K+ current block. The format is cell-based. As to the method: as §1
Series [3] in a line: toxicity in vivo, LD50 after intracerebroventricular injection. As to conditions: mouse, icv or intrathecal, 20 g C57/BL6 mice. On the procedure:
Groups of six to eight mice per dose were injected with 5 μl peptide solution containing 0.1% (w/v) bovine serum albumin and 0.9% (w/v) NaCl. The LD50 values are set out in Table 5.

Series [4] concerns the target mKv1.3 (Mus musculus, UniProt P16390). Nature of the series: patch-clamp whole-cell recording, K+ current block. The format is cell-based. On the procedure: as §1
Series [5] has as its system Lewis rats immunized with spinal cord homogenate. The series is described as follows: treatment of chronic relapsing EAE, osmotic pump IP. As to conditions: MTx 50 nM. The format is in vivo. As to the method: Each rat received 200 μl of emulsion sc, divided in the rear footpads, on day 0. Eight days later, as their body weight decreased, a precursor sign for clinical EAE, an osmotic pump was implanted IP. The pump delivered drugs at 1 μl/h for 8 days. They were filled with the peptide blockers, dissolved in Na Cl 0.15 M containing 2% Lewis serum, as vehicle.
Clinical evaluation. The severity of the disease was scored on a scale of 0 to 6, with 0.5 points for intermediate clinical findings (0: no clinical signs; 1.0: limp tail; 2.0: mild paraparesis and ataxia; 3.0: moderate paraparesis; 4.0: complete hind limb paralysis; 5.0: paralysis+incontinence; 5.5: tetraplegia; 6.0: moribund or death). Rats were weighed every day. Rats showing no clinical signs of EAE and no weight loss were excluded from the studies. The beneficial effects of K^+ blockers on EAE were evaluated by a reduction in clinical severity and in duration of the disease and in number of relapses compared with those of rats treated with the vehicle only, 0.15 M NaCl.
Data analysis. Statistical analysis was conducted using the Mann-Whitney U test. Mean differences between groups were considered significant at values of P<0.05.

Series [6] addresses hKv1.2 (human (only by the printed prefix h), UniProt P16389). Nature of the series: cell-based or functional assay.
For series [7], the target named is T2, hKv3.2 (human (only by the printed prefix h), UniProt Q96PR1).
T2 sequence: T1 sequence (Q96PR1 1-638)
The series is described as follows: cell-based or functional assay.

For series [8], the target named is mKv1.1 (mouse (only by the printed prefix m), UniProt P16388). The series is described as follows: cell-based or functional assay.
The target of series [9] is mKv1.3 (mouse (only by the printed prefix m), UniProt P16390). The series is described as follows: cell-based or functional assay.
The target of series [10] is hIK1 (human (only by the printed prefix h), UniProt O15554). Nature of the series: cell-based or functional assay.

Where “and” joins values, the source holds several entries; their conditions need not be identical. Equal entries are not always repeated. Entries after “also recorded” stand apart in the source; their conditions may differ. Bridge positions count the residues as written; N and C are the ends. Ends that are not written are not given here. Peptide text beside a SMILES is read from it. Bounds are passed on as bounds.

mKv1.3 (Mus musculus, UniProt P16390), sequence (P16390 whole entry): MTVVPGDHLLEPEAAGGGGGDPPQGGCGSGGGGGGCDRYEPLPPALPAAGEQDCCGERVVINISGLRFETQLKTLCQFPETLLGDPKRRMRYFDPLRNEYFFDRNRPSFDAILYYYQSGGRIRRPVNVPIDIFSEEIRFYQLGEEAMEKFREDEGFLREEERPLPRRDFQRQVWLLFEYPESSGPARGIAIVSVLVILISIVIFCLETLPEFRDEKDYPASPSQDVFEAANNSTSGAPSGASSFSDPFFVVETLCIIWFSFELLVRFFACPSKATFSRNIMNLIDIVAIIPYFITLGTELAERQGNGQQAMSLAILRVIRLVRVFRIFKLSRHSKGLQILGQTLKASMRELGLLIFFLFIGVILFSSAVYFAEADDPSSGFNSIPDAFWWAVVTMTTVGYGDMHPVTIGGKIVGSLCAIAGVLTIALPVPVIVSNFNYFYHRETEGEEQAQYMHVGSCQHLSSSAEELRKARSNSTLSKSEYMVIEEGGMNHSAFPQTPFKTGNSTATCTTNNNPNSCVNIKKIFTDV
hIK1 (KCa3.1), sequence (O15554 whole entry): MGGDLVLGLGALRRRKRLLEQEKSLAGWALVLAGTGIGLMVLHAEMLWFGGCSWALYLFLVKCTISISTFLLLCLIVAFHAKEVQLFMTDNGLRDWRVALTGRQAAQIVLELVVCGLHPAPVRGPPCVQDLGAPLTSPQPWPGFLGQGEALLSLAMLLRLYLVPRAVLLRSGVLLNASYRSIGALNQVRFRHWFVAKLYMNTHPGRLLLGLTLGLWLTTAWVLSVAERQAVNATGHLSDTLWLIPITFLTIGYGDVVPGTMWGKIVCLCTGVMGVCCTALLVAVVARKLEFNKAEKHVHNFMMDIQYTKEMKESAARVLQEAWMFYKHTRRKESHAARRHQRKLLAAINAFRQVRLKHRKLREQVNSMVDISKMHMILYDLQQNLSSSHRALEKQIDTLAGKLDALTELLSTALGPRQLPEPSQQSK

On to `CC[C@H](C)[C@@H]1NC(=O)[C@H](CCCCN)NC(=O)[C@@H](NC(=O)[C@H](CCCCN)NC(=O)[C@@H](NC(=O)[C@H](CC(N)=O)NC(=O)[C@@H](NC(=O)[C@H](CCCCN)NC(=O)[C@@H](NC(=O)CN)C(C)C)[C@@H](C)CC)C(C)C)CSSC[C@@H]2NC(=O)[C@H](CCCCN)NC(=O)CNC(=O)[C@H](Cc3ccccc3)NC(=O)[C@H](CCCNC(=N)N)NC(=O)[C@H](CCSC)NC(=O)CNC(=O)[C@H](C)NC(=O)[C@H](CC(=O)O)NC(=O)[C@H](CCCCN)NC(=O)[C@@H]3CSSC[C@@H](C(=O)N[C@H](C(=O)N4CCC[C@H]4C(=O)N[C@@H](CCCCN)C(N)=O)[C@@H](C)O)NC(=O)[C@H](Cc4c[nH]cn4)NC(=O)[C@H](CSSC[C@H](NC(=O)[C@H](CCC(N)=O)NC(=O)[C@H](CCCNC(=N)N)NC(=O)[C@H](CO)NC1=O)C(=O)N[C@@H](CC(C)C)C(=O)N[C@@H](CCCCN)C(=O)N1CCC[C@H]1C(=O)N3)NC(=O)[C@H](CCCCN)NC(=O)CNC(=O)[C@H](CC(N)=O)NC(=O)[C@H](CCSC)NC2=O` (H-GVKINVKCKISRQCLKPCKDAGMRFGKCMNGKCHCTPK-NH2; disulfide 8-28, 14-33, 18-35), for which the IC50 in series [1] and in series [2] was over 1000 nM in each case. The LD50 – broadly, the dose at which mortality reaches 50% – in [3] was 2.25 µg/kg.
As to `CC[C@H](C)[C@@H]1NC(=O)[C@H](CCCCN)NC(=O)[C@@H](NC(=O)[C@H](CCCCN)NC(=O)[C@@H](NC(=O)[C@H](CC(N)=O)NC(=O)[C@@H](NC(=O)[C@@H](NC(=O)[C@@H](NC(=O)CNC(C)=O)C(C)C)[C@@H](C)CC)[C@@H](C)CC)C(C)C)CSSC[C@@H]2NC(=O)[C@H](CCCCN)NC(=O)CNC(=O)[C@H](Cc3ccccc3)NC(=O)[C@H](CCCNC(=N)N)NC(=O)[C@H](CCSC)NC(=O)CNC(=O)[C@H](C)NC(=O)[C@H](CCCCN)NC(=O)[C@H](CCCCN)NC(=O)[C@@H]3CSSC[C@@H](C(=O)N[C@H](C(=O)N4CCC[C@H]4C(=O)N[C@@H](CCCCN)C(N)=O)[C@@H](C)O)NC(=O)[C@H](Cc4c[nH]cn4)NC(=O)[C@H](CSSC[C@H](NC(=O)[C@H](CCC(N)=O)NC(=O)[C@H](CCCNC(=N)N)NC(=O)[C@H](CO)NC1=O)C(=O)N[C@@H](CC(C)C)C(=O)N[C@@H](CCC(=O)O)C(=O)N1CCC[C@H]1C(=O)N3)NC(=O)[C@H](CCCCN)NC(=O)CNC(=O)[C@H](CC(N)=O)NC(=O)[C@H](CCSC)NC2=O` [Ac-OsK1-NH2], in series [1], the IC50 (as a rule, the point on the concentration scale where inhibition reaches its midpoint) is over 1000 nM. The LD50 in series [3] came out at 11 µg/kg.
In series [4], `CC[C@H](C)[C@@H]1NC(=O)[C@H](CCCCN)NC(=O)[C@@H](NC(=O)[C@H](CCCCN)NC(=O)[C@@H](NC(=O)[C@H](CC(N)=O)NC(=O)[C@@H](NC(=O)[C@@H](NC(=O)[C@@H](NC(=O)CN)C(C)C)[C@@H](C)CC)[C@@H](C)CC)C(C)C)CSSC[C@@H]2NC(=O)[C@H](CCCCN)NC(=O)CNC(=O)[C@H](Cc3ccccc3)NC(=O)[C@H](CCCNC(=N)N)NC(=O)[C@H](CCSC)NC(=O)CNC(=O)[C@H](C)NC(=O)[C@H](CCCCN)NC(=O)[C@H](CCCCN)NC(=O)[C@@H]3CSSC[C@@H](C(=O)N[C@H](C(=O)N4CCC[C@H]4C(=O)N[C@@H](CCCCN)C(=O)O)[C@@H](C)O)NC(=O)[C@H](Cc4c[nH]cn4)NC(=O)[C@H](CSSC[C@H](NC(=O)[C@H](CCC(N)=O)NC(=O)[C@H](CCCNC(=N)N)NC(=O)[C@H](CO)NC1=O)C(=O)N[C@@H](CC(C)C)C(=O)N[C@@H](CCCCN)C(=O)N1CCC[C@H]1C(=O)N3)NC(=O)[C@H](CCCCN)NC(=O)CNC(=O)[C@H](CC(N)=O)NC(=O)[C@H](CCSC)NC2=O` [[K^16]-OsK1] (H-GVIINVKCKISRQCLKPCKKAGMRFGKCMNGKCHCTPK-OH; disulfide 8-28, 14-33, 18-35) showed an IC50 of 0.067 ± 0.006 nM. This molecule also returned an LD50 in series [3] of 3 µg/kg.
Turning to “VSCTGSKDCYAPCRKQTGCPNA-KCINK-SCKCYGC [MTx]”, the Incid in [5] was found to be 100%. In [5] (group mean, scale 0 to 6), the “Max Clin Sc, Mean ± SD” value amounted to 2.2 ± 1.5. In series [5] (individual rats), the “Duration (days), first episode of EAE” value was “chronic (3×) and 11 days”; the “Onset (day), first episode of EAE” value is “d11 day; also recorded: d8 day; also recorded: d7 day”. The “Max Clin Sc” value in [5] (individual rats, scale 0 to 6) is 4 and 1 (2×) and 3.
As to Ac-GVIINVKCKISRQCLEPCKKAGMRFGKCMNGKCHCTPK-NH2 (ends and bridges not checked) [Ac-OsK1-NH2], the ID50 in series [6] is about 1300 nM; in series [7], over 1000 nM.
Take VIINVKCKISRQCLEPCKKAGMRFGKCMNGKCHCTPK-NH2 (ends and bridges not checked) [[Δ^1]-OsK1-NH2]: the ID50 in [8] was 2.06 nM; in series [6] it was 85 nM; in series [9], 0.038 nM; in [7] it was over 1000 nM; in series [10] it was 620 nM.
Take GVIINVKCKISRQCLEPCKKAGMRFGKCMNGKCHCTPK-NH2 (ends and bridges not checked) [OsK1-NH2]: the ID50 in series [6] is 26 nM; in series [7], over 1000 nM.
With GVIINVKCKISRQCLKPCKKAGMRFGKCMNGKCHCTPK (ends and bridges not checked; cysteine pairing not given here) [[K^16]-OsK1], the ID50 in series [8] was determined as 0.63 nM; in series [6] it was 5.23 nM; in series [9], 0.067 nM; in [10], 151 nM.
For GVIINVKCKISRQCLEPCKDAGMRFGKCMNGKCHCTPK (ends and bridges not checked; cysteine pairing not given here) [[D^20]-OsK1], in that order: 2.95 nM, 77.8 nM, 0.037 nM and 716 nM.
As for GVIINVKCKISRQCLEPCKKAGMRFGKCMNGKCHCTPK [OsK1], in [7], the ID50 was over 1000 nM.
